In publication PMC10594996:

What was measured:
human IgG (human) = test: SPR; BIAcore X100; Protein A immobilised on a CM5 chip (target 5000 RU); human or NHP IgG at 20 µg/ml captured on the test flow cell to 500 RU; various concentrations of recombinant human CD64 flowed at 10 µl/min; control flow cell with Protein A only; regeneration with 10 mM glycine pH 2.0
[1] = target: NHP IgG (rhesus macaque serum IgG) (rhesus macaque (Macaca mulatta)); test: SPR; BIAcore X100; Protein A immobilised on a CM5 chip ([…]

“recombinant human CD64 receptor (from UniProt P12314 16-374)” was tested, and the Kd (human IgG (human)) was 21.9 nM and the Kd [1] was 162 nM.
